The nature of this data set: soluble on expression in E. coli; label from the status in PepcDB or PDB records.
With “MSLHLIPRPKSVINHEGEFFIERDTEIILSSELSFEDLNLAIMIQKEIEKVLDFKLNINKLFMDKKYSNSIILREFKFENEEEYKIEIKENQVIIEGFGAGLFYGCQSFRQLVREFGACIPNLTIEDSPYFKYRGFYHDVTRGMVPTLDTLKRLVDKAAFYKINQLQLYIEHTFAFKGMSEVWMDKDPLTAEEILILDKYCKERHVELVPSLSTFGHLYEALRSKSFRELCELEIGDEEYSFVDRMAHHTLDVTNPKSLDFVESMLLEFIPLFSSDKFNICCDETFDLGKGKSREKAEKLGVGKIYTEFLNKVYNIVKRFNKNVMFWGDIIVGYPELLSDIPEDLTCLTWNYHPQANDVATKIIAENNKVQYVCPGVGGWNMMMNLIEGSFSNIRRMVNHGMKYGAIGVLNTNWGDYGNINLLANSMPSMIYGAGISWNPKEEEFNEIFKSISLMEFGDESMKVVSLMDKLSKNQVAGWGELVRWKEKFNEREETKEEIKNIDTLKVFEGYKVASEVRREFIKLLKNTEDKEAIQSFIVSSKGWELIDKFFMVLLEREFNKKSLLDIDKKDLAKDLELWFYDYTSIWRKYNKESELNRIREVIVYMCSYLRGEGHHHHHH”, the “soluble on expression in E. coli” value was “soluble”. Regarding “MSLHMSQTTQTDIITLGAVAAKIPQLIPKVPHLLNGLKQAYLRTPSTPAGLGIAFEKAVKRNPDGMALLFEDERYSYQELNEWANQIAHFYLSLGARKGDVIAVMVENRSELLATIVALAKIGVTAALVNTSQTGKVLTHSINLVQPIALIVGEEVRKCVDEIKQDLNLAQDRFHWFANQATRQDAGSAPRDYINLAEKIDHFPKFNPPTTQTVQGKDGLFYIYTSGTTGLPKAVIFTHSRWTLAYGTYGHVLALDENDVMYVTLPMYHATGIVVCWCGVIAGSATLALRRKYSTSAFWKDVQKFNASAIGYVGELCRYLMDAPPSELDRHHRVTKMIGNGMRPNIWDKFKQRFGVKEILELYASSEGNVGFSNIFNFDNTVGFSPTPYAVIAFDKEKNEPIRDQNGYCQKVKTGEVGLLVGKITRRSPFDGYTDPEKNKSVILKNVFKKGDSYFNTGDLVRDIGFRHAQFVDRLGDTFRWKGENVSTTEVENMLCEYEKIVEAVVYGVEIPNTNGRAGMAAITLNDQAEFNDEDMSAMVNTFKKCLPAYAIPVFLRVQKTVETTGTFKYQKNKLKEQAFDPSKTEERLLVLLPGESAYCEVTSEIFDNIQAYKYREGHHHHHH”, the “soluble on expression in E. coli” value was “soluble”. To “MSLIEERLKHYLEKQIPARDQYIEQMEREAHEQQVPIMDLLGMESLLHLLKMAAPARILEIGTAIGYSAIRMAQALPEATIVSIERDERRYEEAHKHVKALGLESRIELLFGDALQLGEKLELYPLFDVLFIDAAKGQYRRFFDMYSPMVRPGGLILSDNVLFRGLVAETDIEHKRHKQLATKIDTYNQWLLEHPQYDTRIFPVGDGIAISIKRETKGDTDDEKAEGHHHHHH” belongs “soluble”; to “MSLIELRDKTILIDGRPRLVLSGEVHYFRLRREDWQDRLDKLKAAGCNTVASYIPWLCHETVEGRIDLDGRSRPELDLGAFIDLCRANGLWFIARPGPFVMAELKNEGLPYWLYEKHPEIVPVGWDGKPATTHTVDYLAPGFLDAARRWYDAVMAVITPRLQPGGGNVIALQLDNEIGMLSWLSNCPDLTENVLADFAAWLKVRHRPESLRKRYPFDPDEPEARRAGIRSPAESYALALLRDLGHYMRDRFARYVATLRSWAETAGIRGIPFVVNIHGTGGGRALSFPIGISQLYPSYTQDFGYLSGSDFYLGNLTFDNFQDLYLCNAFMEAVHRPEQPLASMEFECGDGNYGNTYGNRLDPSAADFKARMCLAQGARLLNYYLFTGGHNYRLDPPPPDGDGRIAFTGERHGFAAPVDPDGRLNYSYPRLANLTRTVAAVADKLAAMWEEHDRVAFGFIPDYFMTESRHPASAAMATIVRNLEANRGPSAWETMARAMLLGGYRFGAVDLQNRPLDVKTTPVLALGSARYMDTAVQRKLADWLSAGGGLLLYGEVPLYGMEGEPCTLLAEALGTEISGFRQASERYFLALAADGWARPRPEVRSHFAQTFAAPLAEALLRVCDTGEICGFETAVGKGRAVVIGTAYPCDIALFRTALERLGAVAALRHDCENHGIFMTSTANAAGERFIHLLNLDGFDKRFHLYEHGRPLFDGHEIELRARDGVMLPLAMREGHHHHHH”, “not soluble”. To “MSLIGVIGVKRNVDIAIREKLALYPKKHKKYVGELLNSFKEVVILNTCNRTEIYFNCTEEISEDEIFDKIFNVFNWNDDLKKYMFLSKEKRAVTHLMEVICGFHSRILGEDQILGQIKGAYKTAISDNSISSELQKMFEIAIACGKKFKTECKMFEVPVSSVSISINSALLKGCRKFMVLGYGEIGKLAIKHLLSHKVECIYLIVRDKSKASDLEGEIVEVLDFNEKNQVINEIDCIVSCTAAPHTVVRNEDIKTEGETIHIYDLAVPRDVDKELSEKERVILKDIDEISKIDDKNKKIRKERMEEYKHIVEESIDEFLNWLKIREVSSKIRNIKIRENEICSERIKTFSNKGNGENAKLAERMIKSTADAYVNRAIELLKSEALKGSDSYCAEIIEKIFLTEGHHHHHH” belongs “soluble”; to “MSLIIKKLKQSHSVKILCEVFNVHRSSYHYWLKRPALINAETIKLRSLISEAHAASNGSAGARTIADIVTNQGVKLSRYRATKLMRTLGLVSCQEPKHRYRKASQEHIDVPNHLSRQFAVTAPNEVWAGDVTYIWTGNRWMYLAVVIDLFARKVIGWSMSLSPDSRLTGKALSMAYESRGKPKGVMFHSDQGSHYTSRKYRQLLWRFQIKQSLSRRGNCWDNAPIERFFRSLKTEWVPTVGYRSFAEAQQEITRYIIGYYCQLRPHQYNGGLTPNESERLYWENSKTVANFSEGHHHHHH”, “not soluble”. The same measure for “MSLIKLIATDMDGTLLNAAHEISQPNIDAIKYAQEQGITVVIATGRAFYEAQAPVADTDLTVPYICLNGAEVRDETFNVMSTSHLNKSLVHKITNVLKDAGIYYQVYTSRAIYTEDPQRDLDIYIDIAERAGQHANVERIKNGIQRRIDNGTLKVVDNYDAIENIPGELIMKILAFDGNLEKIDKASKILAESPNLAISSSSRGNIEITHSDAQKGIALETIAERLGIEMKDVMAIGDNLNDLSMLEKVGYPVAMENGAEEVKKIAKYVTDTNENSGVGKAIMKLLREQEGHHHHHH”: “soluble”. As to “MSLILCCGEALIDMLPRQTTLGEAGFAPYAGGAVFNTAIALGRLGVPSAFFTGLSDDMMGDILRETLRASKVDFSYCATLSRPTTIAFVKLVDGHATYAFYDENTAGRMITEAELPALGADCEALHFGAISLIPEPCGSTYEALMTREHETRVISLDPNIRPGFIQNKQSHMARIRRMAAMSDIVKFSDEDLAWFGLEGDEDTLARHWLHHGAKLVVVTRGAKGAVGYSANLKVEVASERVEVVDTVGAGDTFDAGILASLKMQGLLTKAQVASLSEEQIRKALALGAKAAAVTVSRAGANPPFAHEIGLEGHHHHHH”, the “soluble on expression in E. coli” value was “soluble”.

Regarding “MSLIRVAIADDHQTLIDGISLRFDGNESIDLVFSANDGKDFLKQLKITPVDLVITDLKMPKMDGVTLAREIKRDFKNVKVIVLSMFDQPDVINKMVDVDVDGYILKTSSLDELVTAIGEVNKGKKYFDKHLHGITSLFDVNSTSSKTSLSNAEKDILNLIAEGKTSQEIANERACAVSTIHTHRRNMAHKLELYGKGELLRYAMDKKYNFEEGHHHHHH”, the “soluble on expression in E. coli” value was “soluble”. The same measure for “MSLISPIIRLSHVTFQTSSAARVIKEFVTKYQFHPFAARGLDGGSPCQVALKNGGVVFMVNENTPKTHENSVLLYDFPLQIPFPDTACNVTFEVEDVSGLYHHLVDEGCQLLLPPTELHDDFGSVTYCIVKSVVGNVSHTLIDRTHYRSSFLPGFEYLKNSTHNLSSGNMTHVDHIAYTCPRGTSPSILEWYRRCFGFQHFPLSKGEDPERGFEIIGPRIGLRLTSLVCPKLSKECKLVLAESLPQEGINQVDEFMQQHTGGGIQHIGLSTPDIFKAAEDLSKLGVCFAIQPSSYYSETKKQKEIYSVGLEPQMLAQFGILMDSATDDILSNDAPKKFLLQVFAEPLFSKNSAFLELIERRSAEGFGEGNIRALWRSMQDLQEDQTVKEQEGEGHHHHHH”: “soluble”. The same measure for “MSLIVRRYLKQDLCAVARLEVRSFEIGPYDKEYLREVLENASSISYIAQISDKIVGYIVAMPLNSQEIDIESIATDPDFRKRSIGTRLIARIENESKSLGYRNIILEVRKENIEAISFYSRLGFNIKEFIVNYYEEYYRGSRDAYRMVKSLSEGHHHHHH”: “not soluble”; for “MSLKARRGLSASDLINLNADRLQCLLSGHPKFVFNKGRRGWGKEALERYAPEYANTFRLHWLAVKREHMIWRCDNEMDIHQLLTAAMDPQEFARFSQVWQENGLDHNWLPLPVHPWQWQEKIATDFIADFGEGRMVSLGEFGDQWLAQQSLRTLTNASRRGGLDIKLPLTIYNTSCYRGIPGRYIAAGPLASRWLQQVFATDATLVQSGAVILGEPAAGYVSHEGYAALARAPYRYQEMLGVIWRENPCRWLKPDESPFLMATLMEWDENNQPLAGAYIDRSGLDAETWLTQLFRVVVVPLYHLLCRYGVALIAHGQNITLAMKEGVPQRVLLKDFQGDMRLVKEEFPEMDSLPQEVRDVTSRLSADYLIHDLQTGHFVTVLRFISPLMVRLGVPERRFYQLLAAVLSDYMKKHPQMSERFALFSLFRPQIIRVVLNPVKLTWPDLDGGSRMLPNYLEDLQNPLWLVTQEYESEGHHHHHH”: “soluble”. The same measure for “MSLKDFRPLILVAEDDDSNFKLIKAIIGKKCDILWAKNGEEMLNLYREHTQDAHAILMDIKMPIMNGLEATRIIREEGASLPIIMQTAYAFSSDRENAMQAGASEVLVKPITVSALRGCLSSYFPEIKWEGHHHHHH”: “soluble”. With “MSLKDVSLSSFDAHDLDLDKFPEVVRDRLTQFLDAQELTIADIGAPVTDAVAHLRSFVLNGGKRIRPLYAWAGFLAAQGHKNSSEKLESVLDAAASLEFIQACALIHDDIIDSSDTRRGAPTVHRAVEADHRANNFEGDPEHFGVSVSILAGDMALVWAEDMLQDSGLSAEALARTRDAWRGMRTEVIGGQLLDIYLESHANESVELADSVNRFKTAAYTIARPLHLGASIAGGSPQLIDALLHYGHDIGIAFQLRDDLLGVFGDPAITGKPAGDDIREGKRTVLLALALQRADKQSPEAATAIRAGVGKVTSPEDIAVITEHIRATGAEEEVEQRISQLTESGLAHLDDVDIPDEVRAQLRALAIRSTERREGHHHHHH”, the “soluble on expression in E. coli” value is “soluble”. Consider “MSLKEFLIKKIEFTLFEVCIPDIGADPSGFGVWYEPGPGTPQKRFAVRIFTDEGPVGVYVPPRSRATVIMPAAIALAHFLIRKPALERERHYQTMRRITKHVGEAGIGALDIALWDLGGKISGQPISQMLGGHRRKLPSYASTIPGDEHPKGLSSSEAYADFAQQCLEIGYKGYKMHGWKEGNPQRESEMIRAVARQVGGSMDIMYDAACHLKTLTDAIRVGRVCDEHELLWYEDPYADGGLTIRGHRALKEKVRTPVMIGEHVRNPEIHTELLVSGATDFGRVDPDYDGGITGSYKAAMAAESLGYDVEVHSCGPAMRQLMAALSISNYYEINLVHPIGPNPWQLPVYLNGYSDELDCIDREGMVDVSQSPGLGVDYDWEWIEKNSLERIIVDKAKEGHHHHHH”, for which the “soluble on expression in E. coli” value is recorded as “soluble”.

As to “MSLKEKKLVYLNSKQYEDAYRKKSVLLNDINNINEQYFDLKNSIKDYNKSSKDFESTKRQMEDELILNKMELGTLDVVGEGVEITLDDSGNQVSASSEDANFREIRTIYQVIHDFDMRAVINDIKCSGAEAISINGQRIVSNTEIYCNAEFLLINGVKISAPFNIKAIGNKNKLKTYMLASGNYLQRLKRRSIYVNLKTVNDVKIPAFKGELRHSNIKSKEGHHHHHH”, the “soluble on expression in E. coli” value is given as “soluble”.

On to “MSLKELIALKRKVGLPGVTFAAMADGIWVLQVLPGAGIEKTGLRKGHQIVGVGGKPLAGNKLEDLFKAIEANNITDTMSRGSSERMYSRMTRDTKTQGPVVVLNVKQSRQQEKPFLILCKKEMFRSKIIEIEEDEFEDEVLKAPLPVAVTFWGDSCEPCKEFVPVLEAESAKYAGKVKFVNINVDGNRKLADQLAVKEVPALMVYKGGSAVATATGKLPREKVAEMLQDAAGREGHHHHHH”, for which the “soluble on expression in E. coli” value was “soluble”.
